Target: T1, HiLyte Fluor 488-labelled Aβ42 oligomers (human, UniProt P05067 672-713, HiLyte Fluor 488 label (position not given))
T1 construct: amyloid beta-peptide 1-42 (Aβ42), human, the cut product of the amyloid precursor protein; Oligomeric species in the 6 hour aggregation mixture, told from monomers by photobleaching; also called Aβ oligomers; oligomeric Aβ; source: synthetic peptide, bought: AnaSpec; aggregated at 0.5 μM in PBS pH 7.4 for 6 hours
Assay: single-molecule TIRF two-colour coincidence detection; HiLyte Fluor 488 Aβ42 aggregated 6 hours at 0.5 μM in PBS pH 7.4, dye-labelled sTREM2 added and imaged on slides; monomers told from oligomers by photobleaching; chance coincidence subtracted
Conditions: both partners purified

B1: dye-labelled wild-type sTREM2 (TREM2 ectodomain) for single-molecule TIRF (domain or fragment, UniProt Q9NZC2 19-143, looked up)
chain: HNTTVFQGVAGQSLQVSCPYDSMKHWGRRKAWCRQLGEKGPCQRVVSTHNLWLLSFLRRWNGSTAITDDTLGGTLTITLRNLQPHDAGLYQCQSLHGSEADTLRKVLVEVLADPLDHRDAGDLWF
modifications: fluorescent dye label: TAMRA in the results, AF647 in the methods (position not given)
notes: TREM2 residues 19-143, wild type; The labelled form of m10; also called TAMRA-dye labelled sTREM2; AF647-TREM2; source: Freestyle 293-F cells, transfected (pHLSec), purified from conditioned medium (IMAC, gel filtration), dye-labelled
B1: binds.

From article doi:10.1101/2020.12.03.409995, “Wild-type sTREM2 blocks Aβ aggregation and neurotoxicity, while the Alzheimer’s R47H mutant does the opposite” (bioRxiv, 2020)
